Results taken from publication doi:10.1101/2021.05.25.445488 (bioRxiv, 2021).

T1: GST-TULP3 full length (human, UniProt O75386-1 1-442)
T1 sequence (looked up): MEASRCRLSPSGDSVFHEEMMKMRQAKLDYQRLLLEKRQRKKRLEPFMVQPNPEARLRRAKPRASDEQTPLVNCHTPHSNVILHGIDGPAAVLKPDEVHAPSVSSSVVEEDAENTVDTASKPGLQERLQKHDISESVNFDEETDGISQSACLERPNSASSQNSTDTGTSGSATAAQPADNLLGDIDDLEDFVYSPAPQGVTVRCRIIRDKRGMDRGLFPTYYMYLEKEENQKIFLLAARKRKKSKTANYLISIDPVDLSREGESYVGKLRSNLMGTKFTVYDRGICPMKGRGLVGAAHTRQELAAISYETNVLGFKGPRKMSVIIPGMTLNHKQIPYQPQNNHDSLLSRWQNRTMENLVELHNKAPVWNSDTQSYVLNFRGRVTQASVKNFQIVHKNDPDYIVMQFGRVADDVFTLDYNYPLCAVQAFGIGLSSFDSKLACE

B1: GFP-ARL13B N-terminus (1-298 aa), insect cell purified (domain or fragment, human, UniProt Q3SXY8-1 1-298, looked up)
chain: MFSLMASCCGWFKRWREPVRKVTLLMVGLDNAGKTATAKGIQGEYPEDVAPTVGFSKINLRQGKFEVTIFDLGGGIRIRGIWKNYYAESYGVIFVVDSSDEERMEETKEAMSEMLRHPRISGKPILVLANKQDKEGALGEADVIECLSLEKLVNEHKCLCQIEPCSAISGYGKKIDKSIKKGLYWLLHVIARDFDALNERIQKETTEQRALEEQEKQERAERVRKLREERKQNEQEQAELDGTSGLAELDPEPTNPFQPIASVIIENEGKLEREKKNQKMEKDSDGCHLKHKMEHEQI
B2: GFP-ARL13B full length, insect cell purified (natural protein)
chain: not shown

Molecular target: T1, GST-TULP3 full length
Experiment: pull-down

Binder | binding result
B1 | binds
B2 | binds
